Target: T cell surface antigens CTLA4 and PD-1
Assay: flow cytometry, PHA-stimulated CD4+ T cells, antibody 100 nM (PBS 8.39)

- MFI (fluorescence intensity): 10.2
Substance: hIgG (control) (antibody)
